The source of these data is doi:10.1101/495820.

The target in the data set is T1, SmcH-CC100 (Bacillus subtilis, UniProt P51834 400-774).
T1 sequence: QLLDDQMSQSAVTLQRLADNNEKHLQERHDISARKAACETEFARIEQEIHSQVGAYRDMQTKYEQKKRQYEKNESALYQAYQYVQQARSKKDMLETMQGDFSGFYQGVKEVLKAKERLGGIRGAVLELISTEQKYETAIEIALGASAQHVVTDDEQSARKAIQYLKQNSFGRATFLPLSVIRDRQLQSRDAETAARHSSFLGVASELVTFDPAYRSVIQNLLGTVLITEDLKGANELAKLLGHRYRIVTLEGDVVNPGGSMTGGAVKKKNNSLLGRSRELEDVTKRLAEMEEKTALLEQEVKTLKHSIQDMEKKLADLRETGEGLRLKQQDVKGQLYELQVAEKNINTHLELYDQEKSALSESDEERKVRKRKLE
In words: fluorescence anisotropy.

B1: 40 bp random-sequence dsDNA (dsDNA)
DNA 1: TTAGTTGTTCGTAGTGCTCGTCTGGCTCTGGATTACCCGC
DNA 2: GCGGGTAATCCAGAGCCAGACGAGCACTACGAACAACTAA
On to B1, for which the binding result is “binds”.
